The record followed here is EP4248993A1 (Charité - Universitätsmedizin Berlin, dated 2023).

Test [1] addresses MERS-CoV RBD Twin-Strep His (wild type, G372-L588) (MERS-CoV). Kind of test: BLI, RBD Twin-Strep His on anti-Penta-His biosensor, global 1:1 fit.
Test [2] has the same target. Described as above. The source holds these as a separate data set.
The target is the same in test [3]. Put plainly: ELISA (Figure 6A). Background: In an ELISA, binding on a coated surface is turned into a signal by an enzyme label.

B1: recombinant rabbit DPP4 with C-terminal 6xHis-tag (rbDPP4-His) (receptor)
chain: NKGNHEYLHRQEDNILLFNAEYGNSSLFLANITFDEFGHSITDYSVSPDRLFLLLEYNYVKQWRHSYTASYDIYDLNKRQLITEERIPNNTQWITWAPEGHRLAYVWNNDIYVKLEPNLPSQRITWTGKADVIYNGITDWVYEEEVFSAYSALWWSPNGTFLAYAQFNDTGVPLIEYSFYSDEALQYPKTVRIPYPKAGAVNPTVRFFVVNTDSLSSITNATSVQITAPASMLIGDHYLCDVTWVTHERISLQWLRRIQNYSVMDICDYDRSSGRWNCLVARQHIEMSTTGWVGRFRPAEPHFTSDGNSFYKIMSNEEGYKHICYSLIDNQSCTFITRGAWEVIGIEALTSDYLYYISNEYKGMPGGRNLYKIQLTDHTKVTCLSCELKPERCQYYSVSFGKGAKYYQLRCSGPGLPLYTLHSSVNDQELRVLEDNSALDEMLQDVQMPSKTLDFIILNETKFWYQMVLPPHFDKSKKYPLLLEVYAGPCSQRADAIFRLNWATYLASTENIIVASFDGRGSGYQGDKIMHAINRRLGTLEVEDQIEAARQFSKMGFVDNERIAIWGWSYGGYVTSMVLGSGSGVFKCGIAVAPVSRWEYYDSIYTERYMGLPTPEDNLDHYRNSTVMSRAENFKQVEYLLIHGTADDNVHFQQSAQISKALVDAGVDFQAMWYTDEDHGIDSSTAHQHIYTHMSHFIKQCFSLHHHHHH
For orientation: Kd means a measure of binding affinity in units of concentration. A higher Kd goes with lower affinity. In turn, B1 displayed a Kd in test [1] of 34.3 nM.

B2: recombinant human DPP4 with N-terminal 8xHis-tag (hDPP4-N'His) (receptor)
chain: HHHHHHHHGGGSGGGSGGGSDSRKTYTLTDYLKNTYRLKLYSLRWISDHEYLYKQENNILVFNAEYGNSSVFLENSTFDEFGHSINDYSISPDGQFILLEYNYVKQWRHSYTASYDIYDLNKRQLITEERIPNNTQWVTWSPVGHKLAYVWNNDIYVKIEPNLPSYRITWTGKEDIIYNGITDWVYEEEVFSAYSALWWSPNGTFLAYAQFNDTEVPLIEYSFYSDESLQYPKTVRVPYPKAGAVNPTVKFFVVNTDSLSSVTNATSIQITAPASMLIGDHYLCDVTWATQERISLQWLRRIQNYSVMDICDYDESSGRWNCLVARQHIEMSTTGWVGRFRPSEPHFTLDGNSFYKIISNEEGYRHICYFQIDKKDCTFITKGTWEVIGIEALTSDYLYYISNEYKGMPGGRNLYKIQLSDYTKVTCLSCELNPERCQYYSVSFSKEAKYYQLRCSGPGLPLYTLHSSVNDKGLRVLEDNSALDKMLQNVQMPSKKLDFIILNETKFWYQMILPPHFDKSKKYPLLLDVYAGPCSQKADTVFRLNWATYLASTENIIVASFDGRGSGYQGDKIMHAINRRLGTFEVEDQIEAARQFSKMGFVDNKRIAIWGWSYGGYVTSMVLGSGSGVFKCGIAVAPVSRWEYYDSVYTERYMGLPTPEDNLDHYRNSTVMSRAENFKQVEYLLIHGTADDNVHFQQSAQISKALVDVGVDFQAMWYTDEDHGIASSTAHQHIYTHMSHFIKQCFSLP
notes: range 38-766
In turn, B2 displayed a dissociation constant Kd in test [2] of 7.8 nM. This lies in the single-digit nanomolar range.

B3: recombinant mouse DPP4 (mDPP4) (receptor)
chain: SKDEAAADSRRTYSLADYLKSTFRVKSYSLWWVSDFEYLYKQENNILLLNAEHGNSSIFLENSTFESFGYHSVSPDRLFVLLEYNYVKQWRHSYTASYNIYDVNKRQLITEEKIPNNTQWITWSPEGHKLAYVWKNDIYVKVEPHLPSHRITSTGEENVIYNGITDWVYEEEVFGAYSALWWSPNNTFLAYAQFNDTGVPLIEYSFYSDESLQYPKTVWIPYPKAGAVNPTVKFFIVNIDSLSSSSSAAPIQIPAPASVARGDHYLCDVVWATEERISLQWLRRIQNYSVMAICDYDKINLTWNCPSEQQHVEMSTTGWVGRFRPAEPHFTSDGSSFYKIISDKDGYKHICHFPKDKKDCTFITKGAWEVISIEALTSDYLYYISNQYKEMPGGRNLYKIQLTDHTNVKCLSCDLNPERCQYYAVSFSKEAKYYQLGCWGPGLPLYTLHRSTDHKELRVLEDNSALDRMLQDVQMPSKKLDFIVLNETRFWYQMILPPHFDKSKKYPLLLDVYAGPCSQKADASFRLNWATYLASTENIIVASFDGRGSGYQGDKIMHAINRRLGTLEVEDQIEAARQFVKMGFVDSKRVAIWGWSYGGYVTSMVLGSGSGVFKCGIAVAPVSRWEYYDSVYTERYMGLPIPEDNLDHYRNSTVMSRAEHFKQVEYLLIHGTADDNVHFQQSAQISKALVDAGVDFQAMWYTDEDHGIASSTAHQHIYSHMSHFLQQCFSLH
B3: in test [3], the binding result is “no binding”.
